# Experiments:
# [1] = target: polarity-marked microtubules (polymerised alpha-beta tubulin) (porcine) (UniProt P02554); test: single molecule fluorescence motility assay; Cin8-3GFP variants in whole cell extract on polarity-marked Taxol MTs; MB-80 (MB with 80 mM NaCl, IS = 0.222), 4 mM ATP; 90 s recordings, 1 s frames
# [2] = target: polarity-marked microtubules (polymerised alpha-beta tubulin) (porcine) (UniProt P02554); test: single molecule fluorescence motility assay; Cin8-3GFP variants in whole cell extract on polarity-marked Taxol MTs; MB-30 (MB with 30 mM NaCl, IS = 0.172), 4 mM ATP; 90 s recordings, 1 s frames
# [3] = target: polarity-marked microtubules (polymerised alpha-beta tubulin) (porcine) (UniProt P02554); test: single molecule fluorescence motility assay; purified Cin8-3GFP-6His variants on polarity-marked Taxol MTs; MB-90 (MB with 90 mM NaCl, IS = 0.232), 4 mM ATP; 90 s recordings
# [4] = target: polarity-marked microtubules (polymerised alpha-beta tubulin) (porcine) (UniProt P02554); test: single molecule fluorescence motility assay; purified Cin8-3GFP-6His variants on polarity-marked Taxol MTs; MB-135 (MB with 135 mM NaCl, IS = 0.277), 4 mM ATP; 90 s recordings
# [5] = target: polarity-marked microtubules (polymerised alpha-beta tubulin) (porcine) (UniProt P02554); test: single molecule fluorescence motility assay; purified Cin8-3GFP-6His variants on polarity-marked Taxol MTs; MB-45 (MB with 45 mM NaCl, IS = 0.187), 4 mM ATP; 90 s recordings
Substance,% of moving molecules with interaction times longer than 90 s [1],% of moving molecules with interaction times longer than 90 s [2],% of moving molecules with interaction times longer than 90 s [3],% of moving molecules with interaction times longer than 90 s [4],% of moving molecules with interaction times longer than 90 s [5]
"wild type Cin8-3GFP (whole cell extract, strain LGY 2055) (from UniProt P27895 1-1000) (natural protein)",21%,75%,,,
purified wild type Cin8-3GFP-6His (plasmid pOS2) (from UniProt P27895 1-1000) (natural protein),,,53%,14%,71%
